{"source": "patent US10976317B2", "about": "“Systematic discovery, maturation and extension of peptide binders to proteins” (Roche Sequencing Solutions, Inc., priority 2013, dated 2021)"}
{"biological_target": "T1, human prostate specific antigen (PSA) (Homo sapiens, UniProt P07288)", "T1 construct": "biotin (chemical label, NHS-PEG4-biotin on amines)", "T1 sequence (P07288 25-261)": "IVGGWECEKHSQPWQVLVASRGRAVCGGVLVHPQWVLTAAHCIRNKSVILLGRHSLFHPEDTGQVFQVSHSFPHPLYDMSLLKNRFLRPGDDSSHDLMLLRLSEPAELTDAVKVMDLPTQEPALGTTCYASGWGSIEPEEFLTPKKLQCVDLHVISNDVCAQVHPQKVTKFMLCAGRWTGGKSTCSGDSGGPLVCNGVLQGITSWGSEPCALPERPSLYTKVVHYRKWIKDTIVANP", "test": "PSA binding assay on 5-mer peptide array (biotin-labelled PSA, Streptavidin Cy5 staining, fluorescence signal)", "details": "5-mer Array; rank in the list of 405 sequences with the highest average signal intensity; PSA 100 ng/ml, 25° C., 12 hrs", "source_text": "Array Design: 5-mer array was designed by using all combinations of 18 natural amino acids excluding cysteine and methionine, any dimer or a longer repeat of the same amino acid, as well as any peptide containing HR, RH, HK, KH, RK, KR, HP, and PQ sequences to create a library of 1,360,732 unique peptides. Extension Arrays were designed by extending sequences selected from 5-mer arrays experiments by two amino acids from both N- and C-terminus using all 20 natural amino acids. Double Substitution/Deletion Arrays were designed by extension of sequences identified in the extension array experiments with glycine (G) amino acid to make them 11-mer peptides and creating a library that includes all possible single- and double substitution/deletion variants of the original sequence.\nArray Synthesis: 5-mer Arrays were synthesized with 5 cycles of synthesis using a mixture of G and S amino acids in a 3:1 ratio, respectively at the N- and C-terminus of each of the 5-mer peptide. Extension and Double Substitution/Deletion Arrays were synthesized directly without using flanking wobble synthesis.\nBinding Assay: PSA labelled with biotin using EZ-Link NHS-PEG4-biotinylation kit (Thermo Fisher Sci., Inc. Rockford, Ill.) was incubated in SecureSeal hybridization chamber (Grace Bio-Labs, Bend, Ore.) at concentration 100 ng/ml in 1×TE binding buffer with 1% alkali soluble casein at 25° C. for 12 hrs. Array was washed 3× with 1×TE buffer and stained with Streptavidin Cy5 in 1× binding buffer with 1% alkali soluble casein at 25° C. for 1 hr, and washed 3× with 1×TE buffer and finally with 0.1×TE buffer and scanned using a 2 micrometer MS200 scanner (Roche/Nimblegen, Madison, Wis.).\nData analysis: Image analysis and signal extraction performed using NimbleGen DEVA software, and peptides with fluorescent signal are identified. The 5-mer sequences for the binding peptides are identified and clustered based on distances using the standard BLOSUM 62 substitution matrix as implemented by an R package ‘PEPLIB’ (see, White et al., 2013, cited above). The distances of the 5-mer peptides are plotted on the first two components of a PCA plot. Consensus motifs for each cluster are reported in the graph."}
{"substance": "WEVHL", "rank by binding signal to PSA": 28}
{"substance": "FEVYL", "rank by binding signal to PSA": 1}
{"substance": "WTVYA", "rank by binding signal to PSA": 3}
{"substance": "RSILY", "rank by binding signal to PSA": 307}
